Measurements: IntAct's records for PubMed 16368681

B1: Protein disulfide-isomerase (Saccharomyces cerevisiae), P17967 (parent)
chain: MKFSAGAVLSWSSLLLASSVFAQQEAVAPEDSAVVKLATDSFNEYIQSHDLVLAEFFAPWCGHCKNMAPEYVKAAETLVEKNITLAQIDCTENQDLCMEHNIPGFPSLKIFKNSDVNNSIDYEGPRTAEAIVQFMIKQSQPAVAVVADLPAYLANETFVTPVIVQSGKIDADFNATFYSMANKHFNDYDFVSAENADDDFKLSIYLPSAMDEPVVYNGKKADIADADVFEKWLQVEALPYFGEIDGSVFAQYVESGLPLGYLFYNDEEELEEYKPLFTELAKKNRGLMNFVSIDARKFGRHAGNLNMKEQFPLFAIHDMTEDLKYGLPQLSEEAFDELSDKIVLESKAIESLVKDFLKGDASPIVKSQEIFENQDSSVFQLVGKNHDEIVNDPKKDVLVLYYAPWCGHCKRLAPTYQELADTYANATSDVLIAKLDHTENDVRGVVIEGYPTIVLYPGGKKSESVVYQGSRSLDSLFDFIKENGHFDVDGKALYEEAQEKAAEEADADAELADEEDAIHDEL
B2: Protein disulfide-isomerase (Saccharomyces cerevisiae), P17967 (parent)
chain: B1 chain
partner: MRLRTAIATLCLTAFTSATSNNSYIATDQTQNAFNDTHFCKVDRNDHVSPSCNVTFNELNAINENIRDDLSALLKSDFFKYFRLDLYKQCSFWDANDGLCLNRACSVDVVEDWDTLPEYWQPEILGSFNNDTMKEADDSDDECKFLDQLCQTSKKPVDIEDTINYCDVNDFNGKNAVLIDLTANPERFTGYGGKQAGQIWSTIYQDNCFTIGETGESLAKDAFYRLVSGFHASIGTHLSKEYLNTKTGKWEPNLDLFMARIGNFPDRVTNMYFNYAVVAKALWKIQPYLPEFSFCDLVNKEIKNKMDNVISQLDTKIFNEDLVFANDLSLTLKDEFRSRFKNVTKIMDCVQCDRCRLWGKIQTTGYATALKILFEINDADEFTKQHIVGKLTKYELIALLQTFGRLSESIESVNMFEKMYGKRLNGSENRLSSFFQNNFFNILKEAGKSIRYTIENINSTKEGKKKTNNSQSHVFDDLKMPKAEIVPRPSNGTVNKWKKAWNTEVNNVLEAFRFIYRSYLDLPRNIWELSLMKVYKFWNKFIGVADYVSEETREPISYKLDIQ

Variants of: B1
Details: with rnas1_bovin RNASE1, P61823
rnas1_bovin RNASE1, P61823, sequence (P61823 whole entry): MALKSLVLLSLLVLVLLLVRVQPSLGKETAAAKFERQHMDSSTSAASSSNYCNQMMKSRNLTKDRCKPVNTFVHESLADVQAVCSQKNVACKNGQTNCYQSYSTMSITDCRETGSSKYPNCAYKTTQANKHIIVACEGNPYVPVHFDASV

Variant | effect of a mutation on the interaction
C406A;C409A | decreasing interaction
C61A;C64A | decreasing interaction

Variants of: B2
Details: with ero1_yeast ERO1, Q03103

Variant | effect of a mutation on the interaction
C61A;C64A | decreasing interaction
C406A;C409A | decreasing interaction
